From the MegaScale stability set (Tsuboyama et al. 2023)

B1: EEHEE_rd4_0469 (parent)
chain: ITIHVNGVTYHFDNPEEAEKFAQKMAKTYQLKMEIHNGEFHME

Variants of: B1
Assay: folding stability dG (cDNA display proteolysis); higher = more stable
Details: PBS, room temperature

Folding stability dG [kcal/mol], by site and new letter:
I3: Y 0.837
H4: A 0.76; C 1.77; D 0.586; E 0.692; F 1.08; G 0.633; I 0.994; K 0.918; L 0.939; M 0.82; N 0.813; P 0.265; Q 0.774; R 1.08; S 0.684; T 0.943; V 0.899; W 1.35; Y 1.29
V5: A 0.938; C 1.77; D 0.38; E 0.203; F 1.24; G 0.398; H 0.711; I 1.14; K 0.112; L 0.899; M 0.927; N 0.312; P -0.199; Q 0.252; R 0.306; S 0.42; T 0.534; W 1.2; Y 0.92
N6: A 1.3; D 1.11; E 1.2; F 2.18; G 1.14; H 1.35; I 1.51; K 1.37; L 1.79; M 1.73; P 0.4; Q 1.26; R 1.27; S 1.07; T 1; V 1.42; W 1.88; Y 1.73
G7: A 0.95; D 0.859; E 0.803; F 1.65; H 1.13; I 2.4; K 1; L 1.33; M 1.22; N 1.07; P -0.022; Q 0.959; R 1.04; S 1.07; T 0.96; V 1.83; W 1.43; Y 1.26
V8: A 1.11; D 1.01; E 1.09; F 1.36; G 0.858; H 1.11; I 1.13; K 1.38; L 1.19; M 1.18; N 1.12; Q 1.06; R 1.43; S 1.09; T 1.12; W 1.47; Y 1.29
T9: A 1.39; C 1.86; D 0.639; E 0.827; F 0.925; G 1.11; H 1.11; I 1.19; K 1.51; L 1.15; M 1.21; N 0.826; P 1.51; Q 1.27; R 1.4; S 1.17; V 1.25; W 0.84; Y 0.832
Y10: A 0.111; C 1.52; E -0.243; F 1.19; H 0.792; I 0.806; K 0.307; L 0.756; M 0.573; N -0.261; Q -0.14; R 0.338; S -0.597; T 0.067; V 0.557; W 1.07
H11: A 1.02; D 0.692; E 0.843; F 1.17; G 0.636; I 1.04; K 1.12; L 1.02; M 1.03; N 0.977; P 0.279; Q 1.01; R 1.13; S 1.05; T 1.07; V 1.07; W 1.24; Y 1.18
F12: A -0.214; C 1.07; G -0.935; H -0.29; I 0.352; K -0.93; L 0.299; M 0.391; N -0.578; P -0.616; Q -0.822; S -0.408; T -0.211; V 0.034; W 0.481; Y 0.526
D13: A 1.2; C 1.81; E 1.11; F 1.15; G 1.11; H 1.2; I 1.3; K 1.1; L 1.28; M 1.16; N 1.13; P 1.17; Q 1.11; R 1.15; S 1.26; T 1.25; V 1.21; W 1.23; Y 1.23
N14: A 0.947; D 1.19; E 0.901; F 1.05; G 0.9; H 0.946; I 1.22; K 1.1; L 1.18; M 0.98; P 0.129; Q 1; R 1.09; S 1.07; T 1.09; V 1.1; W 1.05; Y 0.849
P15: A 1.14; D 0.883; E 0.979; F 1.39; G 1.04; H 1.13; I 1.27; K 1.17; L 1.35; M 1.5; N 0.994; Q 1.03; R 1.34; S 1.1; T 1.14; V 1.21; W 1.53; Y 1.36
E16: A 1.12; C 1.77; D 1.25; F 1.2; G 1.02; H 1.14; I 1.18; K 1.18; L 1.19; M 1.15; N 1.03; P 0.698; Q 1.1; R 1.21; S 1.12; T 1.09; V 1.18; W 1.16; Y 1.19
E17: A 1.15; C 1.81; D 1.06; F 0.96; G 0.714; H 0.948; I 1.09; K 1.14; L 1.19; M 1.07; N 0.912; P 0.444; Q 1.03; R 1.07; S 1.15; T 1.07; V 1.02; W 1.01; Y 0.867
A18: C 1.56; D -0.444; E 0.011; F 1; G 1.03; H 0.114; I 0.525; K 0.431; L 0.747; M 0.753; N -0.125; P -0.237; Q 0.282; R 0.63; S 0.425; T 0.325; V 0.798; W 0.81; Y 0.556
E19: A 1.35; D 1.07; F 1.63; G 1.03; H 1.38; I 1.5; K 1.27; L 1.61; M 1.61; N 1.32; P -0.375; Q 1.26; R 1.41; S 1.16; T 1.3; V 1.47; W 1.82; Y 1.6
K20: A 1.21; C 2.01; D 1.03; E 1.11; F 1.1; G 0.79; H 1.15; I 1.18; L 1.23; M 1.15; N 1.02; P 0.383; Q 1.17; R 1.17; S 1.15; T 1.19; V 1.17; W 1.02; Y 1.09
F21: A 0.133; C 1.38; D -0.653; E -0.052; G -0.582; H 0.061; I 0.089; K -0.758; L 0.173; M 0.206; N -0.383; Q -0.188; R -0.383; S -0.647; T -0.122; V 0.092; W 1.2; Y 0.564
A22: C 1.76; D -0.261; E 0.335; F 0.747; G 0.3; H 0.587
